Assay results taken from PMC10757926 (2023).
Where two headings read alike, the source gives them in different places.

Columns and labels:
Experiment in all cases: BLI
[1] = molecular target: T1, biotinylated recombinant hSIRPα (extracellular portion) (human, UniProt P78324 31-373, biotin (Sulfo-NHS-LC-LC-Biotin))
[2] = molecular target: T1, biotinylated recombinant hSIRPα …; remark: listed apart in the source
[3] = molecular target: T1, biotinylated recombinant hSIRPα …; remark: listed apart in the source

T1 sequence (P78324 31-373): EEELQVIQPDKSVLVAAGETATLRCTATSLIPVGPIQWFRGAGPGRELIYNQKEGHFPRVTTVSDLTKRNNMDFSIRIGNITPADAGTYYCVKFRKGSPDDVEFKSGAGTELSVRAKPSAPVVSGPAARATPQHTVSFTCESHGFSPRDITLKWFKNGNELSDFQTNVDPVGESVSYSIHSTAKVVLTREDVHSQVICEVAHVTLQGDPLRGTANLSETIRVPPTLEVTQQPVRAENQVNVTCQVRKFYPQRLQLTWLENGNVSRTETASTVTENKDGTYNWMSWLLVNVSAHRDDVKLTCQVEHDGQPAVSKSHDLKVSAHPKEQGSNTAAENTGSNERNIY

B1: hSIRPα Nb S14 (VHH)
VHH: EVQLVESGGGLVQPGGSLRLSCAASGFTANSYRMTWVRQAPGKGLEWVADIGTGNEWKYYPDSVKGRFTISRDAAKNTVYLQMNSLKPEDTAVYYCAKNGAVWYGEDGLDYWGKGTLVTVSS
B1 was tested, and the Kd [1] was 16.7 nM and the koff [2] was 0.00376 s⁻¹.

B2: hSIRPα Nb S7 (VHH)
VHH: HVQLVESGGGLVQVGDSLRLSCAPSGRTFRAYAMAWFRQAPGKEREFVAAIRWIGGTPSYKDSVKGRFTISRDNARNTFYLQMNSLEPQDTGVYYCAAEETQKGSGLGHDGRHYDYWGQGTPVTVSS
Work on B2 yielded a Kd [1] of 20 nM and a koff [2] of 0.0123 s⁻¹.

B3: hSIRPα Nb S17 (VHH)
VHH: QVQLVESGGGLVQPGGSLRLSCAASGFTLDSYVIGWFRQAPGKEREGVSCISQRIGSTDYADSVKGRFTISKDNAKNTAYLQMNALKPEDTAVYYCAAGRLYYSGTYCPQGGMSYWGKGSPVTVSS
Binder B3 has a Kd [1] of 26.6 nM and a koff [2] of 0.00458 s⁻¹.

B4: hSIRPα Nb S43 (VHH)
VHH: HVQLVESGGGLVQPGGSARLSCAASGFDLDYFAIGWFRQAPGKEREGVSCISTRSETTNYVDSVKGRFTISRDNAISTVYLQMNNLKPEDTAVYYCAADWADWTMTGCQMTWDDYNYWGQGAQVTVSS
B4 gave a Kd [1] of 99 nM and a koff [2] of 0.131 s⁻¹.

B5: hSIRPα Nb S12 (VHH)
VHH: QVQLVESGGGLVQPGGSLRLSCLVSGFSSSYYAIGWFRQAPGKEREGVSCITRSGDTTNYADSVKGRFTISRDDARNTVYLQMNSLKTEDTAVYSCALWAWAGSGRLRCTASEYGHWGQGTQVTVSS
B5 showed a Kd [1] of 25.9 nM and a koff [2] of 0.0127 s⁻¹.

B6: hSIRPα Nb S21 (VHH)
VHH: DVQLVESGGGLVQPGGSLTLSCAASGFTSGTYALAYFRQAPGKEREGVSCISNDGGSRNYADSVKGRFTISRDNAKNTMYLQMNSLKPEDTAVYYCAAGPWYYCSDFARRPDGMDYWGKGTPVTVSS
For B6, the Kd [1] was 2.56 nM.

B7: hSIRPα Nb S45 (VHH)
VHH: HVQLVESGGGLVQPGGSLRLSCAARGFSFRDSAMSWARQAPGKGLEWVGAIYSDGSTVYEKSVKGRFTISRDNAKNTMYLQMHSLKPEDSARYYCAPKGVVADEGDYSGQGTLVTVSS
With B7 the Kd [1] was 2.53 nM and the koff [2] was 0.00164 s⁻¹.

B8: hSIRPα Nb S29 (VHH)
VHH: EVQLVESGGGLVQPGGSLRLSCAASGFTSETYAIGWFRQAPGKEREGVSCISNDGGSRNYADSVKGRFTISRDNAKNTSYLQMNSLKPEDTAVYYCAAGKYYYCLGYVSDGMDYWGKGTPVTVSS
For B8, the Kd [1] was 4.78 nM and the koff [2] was 0.00462 s⁻¹.

B9: hSIRPα Nb S8 (VHH)
VHH: QVQLVESGGGLVQPGGSLRLSCADSEFRLDEYATGWFRQAPGKEREGVACISRSGSNTKYTDSVKGRFTISRDNAKKTVYLQMNSLKPEDTAVYYCAADLTSHYLSCSSYTDYNSWGQGTQVTVSS
In the case of B9, the Kd [1] is reported as 0.46 nM and the koff [2] is reported as 0.0009 s⁻¹.

B10: hSIRPα Nb S44 (VHH)
VHH: QVQLQESGGGLVQPGGSLRLACAASGFTFSSYDMSWVRQAPGKGLEWVSDIKSGGGRTYYADSVKGRFTISRDNAKNTVYLQMNSLKPEDTAVYYCGSLDNSGAYTGGGQGSQVTVSS
B10 was tested, and the Kd [1] was 4.61 nM and the koff [2] was 0.00915 s⁻¹.

B11: hSIRPα-S36 Nb (VHH)
VHH: EVQLVESGGGLVQPGGSLRLSCAASGFTLDYYAIGWFRQVPGKEREGVSCISSDGGGNTYYADSVKGRFTISRDNAKNTVYLQMNSLKPEDSAVYSCAAGPTYYSGSYCRDPHSDYDYWGQGTQVTVSS
B11 showed a Kd [1] of 0.12 nM and a koff [2] of 0.0002 s⁻¹.

B12: hSIRPα-S36K>R Nb (VHH)
VHH: EVQLVESGGGLVQPGGSLRLSCAASGFTLDYYAIGWFRQVPGREREGVSCISSDGGGNTYYADSVRGRFTISRDNARNTVYLQMNSLRPEDSAVYSCAAGPTYYSGSYCRDPHSDYDYWGQGTQVTVSS
B12 gave a Kd [3] of 0.19 nM.

B13: hSIRPα Nb S41 (VHH)
VHH: HVQLVESGGGLVQPGGSLRLSCAASGETLDYYAIGYVRQAPGKEREGVSCISSRGDNTNYADSVKGRFTISRDNANNTVYLQMNSLKPEDTAVYYCVAIKDSWQNYYCSVGWVEYDVWGQGTQVTVSS
Work on B13 yielded a Kd [1] of 5.65 nM and a koff [2] of 0.00383 s⁻¹.

B14: hSIRPα Nb S33 (VHH)
VHH: EVQLVESGGGLVQPGGSLRLSCTTSGFTLDYYSVGWFRQAPGKEREGVSCITASGSSTNYANSVKGRFTISRDKVKNTVYLQMSSLKPEDTAVYYCAAEPCTVVAGILQAPTSDFGSWGQGTQVTVSS
In the case of B14, the Kd [1] is reported as 20 nM and the koff [2] is reported as 0.00544 s⁻¹.
